Test results: paper PMC2289352

Target: S1 triple mutant containing all three substitutions L108D, L112D, and V117D
Test: SEC

protein eluting in the void volume of Sephacryl S200 (self-association): > 50%
Substance: S1 triple mutant containing all three substitutions L108D, L112D, and V117D (domain or fragment)
